US20240209109A1 (CONCEPT TO MEDICINE BIOTECH, published 2024)

What was measured:
human CD40 on cells [1] = molecular target: T1, human CD40 on cells (human, UniProt P25942 21-277); test: FACS on human dendritic cells, MFI
T1 construct: whole, on cells; also called cell surface CD40; Jurkat-CD40

human CD40 on cells [2] = molecular target: T1, human CD40 on cells; test: FACS on Jurkat cells overexpressing human CD40, PE anti-human IgG, MFI
Method: To evaluate their binding affinity to cell surface CD40, chimeric anti-CD40 monospecific antibodies were tested in Jurkat cell lines that overexpressed CD40 by FACS. A total number of 1×10⁵ Jurkat-CD40 cells in each well were incubated with 10-fold serially diluted antibodies starting from 100 nM for 30 minutes at 4° C. in FACS buffer. After wash by FACS buffer, PE conjugated-anti-human IgG antibody was added to each well and incubated at 4° C. for 30 minutes. After wash, MFI of PE was evaluated by MACSQuant Analyzer 16.

T1 sequence (P25942 21-277): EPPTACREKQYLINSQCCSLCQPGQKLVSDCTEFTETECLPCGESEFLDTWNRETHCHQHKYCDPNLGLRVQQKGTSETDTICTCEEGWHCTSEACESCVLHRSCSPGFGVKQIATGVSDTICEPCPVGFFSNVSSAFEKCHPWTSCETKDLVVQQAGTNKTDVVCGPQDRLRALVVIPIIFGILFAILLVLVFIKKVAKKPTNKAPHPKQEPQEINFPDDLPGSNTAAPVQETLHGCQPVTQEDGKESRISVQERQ

Row | EC50 (read off the curve) (human CD40 on cells [1]) [nM] | EC50 (read off the curve) (human CD40 on cells [2]) [nM] | Binder
1 | ~0.6 | – | b16 (42p155z2)-LALA humanized anti-5T4/CD40 bispecific antibody (bispecific antibody, human IgG1, kappa, L234A L235A, 1+2 b16 format, humanized 5T4 arm; also called b16 (42p15522)-LALA) heavy 1: QVQLVQSGAEVKKPGASVKVSCKASGYAFSSSWMNWVRQAPGQGLEWMGRIYREDGHTNYNGKFKGRVTMTADKSITTAYMELSRLRSDDTAVYYCANGGAMDYWGQGTLVTVSSASTKGPSVFPLAPSSKSTSGGTAALGCLVKDYFPEPVTVSWNSGALTSGVHTFPAVLQSSGLYSLSSVVTVPSSSLGTQTYICNVNHKPSNTKVDKKVEPKSCDKTHTCPPCPAPEAAGGPSVFLFPPKPKDTLMISRTPEVTCVVVDVSHEDPEVKFNWYVDGVEVHNAKTKPREEQYNSTYRVVSVLTVLHQDWLNGKEYKCKVSNKALPAPIEKTISKAKGQPREPQVCTLPPSREEMTKNQVSLSCAVKGFYPSDIAVEWESNGQPENNYKTTPPVLDSDGSFFLVSKLTVDKSRWQQGNVFSCSVMHEALHNHYTQKSLSLSPGK light: not shown heavy 2: not shown
2 | – | ~0.2 | 2p1294 chimeric monospecific antibody (antibody, V domains shown, chimeric monospecific antibody made from the alpaca VHH) VH: QVQLVESGGGLVQPGGSLRLSCAASGFSFRRYTMSWVRQAPGKGLEWVSAISDNGAITTYTESAQGRFTISRDNAKNTLYLQMNSLKPEDTAVYYCAQGGGSNYYRESWGQGTQVTVSS
3 | – | ~0.2 | 42p655 chimeric monospecific antibody (antibody, V domains shown, chimeric monospecific antibody made from the alpaca VHH) VH: AVQLVESGGGLVQPGGSLRLSCAASGFAFRRYTMSWVRQAPGKGLEWVSSITDNGSITTYAESAQGRFTISRDNAKNTLYLQMNSLKPEDTAVYHCAQGGGSNYYRESWGQGTQVTVSS
